# Results taken from patent publication US20220409696A1, “Heparin-Associated Polypeptides and Uses Thereof” (Juvena Therapeutics, Inc., priority 2021, published 2022).
# Tested on: DM1 human myoblast
# Assay: Gene expression fold change in DM1 human myoblast
# Type: cell-based
# Settings: 48 h; BMP7 50 ng/mL, Butyrate 100 nM, IGF2 200 ng/mL
# Protocol: Myoblasts were cultured 48 h in the presence of factors (BMP7 50 ng/mL, Butyrate 100 nM, IGF2 200 ng/mL).
# Myoblasts were cultured 96 h in the presence of factors (IGF2 200 ng/mL). […] Myoblasts were cultured 48 h in the presence of factors (IGF2 200 ng/mL).
# RNA was isolated from each well (RNeasy Mini Kit, Qiagen) and cDNA was obtained by reverse-transcription (High Capacity Reverse Transcription Kit, Thermo Fisher Scientific). Real-time quantitative PCR was performed using QuantStudio3 (Thermo Fisher).
# IGF2 was tested individually for its ability to promote proliferation and/or fusion of human muscle progenitor cells from an individual with myotonic dystrophy type 1 (hMD)—a muscular dystrophy caused by mutations in the DMPK1 gene. The effect of IGF2 on myogenic activity was assayed in biological triplicate across a range of concentrations centered around expected physiological levels by adding each factor to hMD myoblasts for 72 hours with daily media changes (DMEM+2% horse serum) and a second pulse of factors at the first media change. After 72 or 96 hours, cells were pulsed for 2-5 hours with EdU (30 uM), ethanol fixed, stained with Hoescht 3342, immunostained for proliferation—as measured by the percent of cells staining positive for EdU (% EdU)-, and immunostained for differentiation—as measured by the increase in cellular area staining positive for embryonic myosin heavy chain (% eMyHC) relative to the negative controls, which received media and vehicle only. Wells were imaged on a Keyence BZ-100 at 4×, the images quantified in Cell Profiler, and the statistics were computed in R. Additionally, RNA was extracted from myoblast and select transcript abundances quantified by qPCR.
molecule,measurement,value
"BMP7: factor BMP7 added at 50 ng/mL to DM1 human myoblasts (protein, UniProt P18075 293-431, looked up) Bone morphogenetic protein 7: STGSKQRSQNRSKTPKNQEALRMANVAENSSSDQRQACKKHELYVSFRDLGWQDWIIAPEGYAAYYCEGECAFPLNSYMNATNHAIVQTLVHFINPETVPKPCCAPTQLNAISVLYFDDSSNVILKKYRNMVVRACGCH",MYF5 myogenic gene expression fold change compared to FM (vehicle),0.709
same,MYODI myogenic gene expression fold change compared to FM (vehicle),0.709
same,MYOG myogenic gene expression fold change compared to FM (vehicle),0.361
